Patent US20230364254A1, “METHODS FOR TREATING CANCERS WITH ANTIBODY DRUG CONJUGATES (ADC) THAT BIND TO 191P4D12 PROTEINS” (priority 2020, published 2023)

Legend:
[1] = target: T1, 191P4D12 (Homo sapiens, UniProt Q96NY8); assay: Analytical and biological characterization studies: comparability of enfortumab vedotin and AGS-22M6E
T1 sequence (Q96NY8 32-510): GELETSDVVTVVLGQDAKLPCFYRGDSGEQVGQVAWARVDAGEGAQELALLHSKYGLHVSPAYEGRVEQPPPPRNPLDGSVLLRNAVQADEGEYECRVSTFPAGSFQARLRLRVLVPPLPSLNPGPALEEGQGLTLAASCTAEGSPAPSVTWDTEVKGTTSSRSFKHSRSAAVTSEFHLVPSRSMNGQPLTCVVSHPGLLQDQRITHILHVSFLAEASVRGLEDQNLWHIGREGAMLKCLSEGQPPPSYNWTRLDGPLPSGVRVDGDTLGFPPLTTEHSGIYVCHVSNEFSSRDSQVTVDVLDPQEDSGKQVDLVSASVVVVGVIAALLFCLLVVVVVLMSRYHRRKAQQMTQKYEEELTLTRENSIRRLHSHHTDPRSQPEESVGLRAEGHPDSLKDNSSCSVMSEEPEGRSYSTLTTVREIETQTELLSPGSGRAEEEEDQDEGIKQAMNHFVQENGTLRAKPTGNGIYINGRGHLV
Source text: As described above and in U.S. Pat. No. 8,637,642, AGS-22M6E is an ADC derived from a murine hybridoma cell line. Enfortumab vedotin is a Chinese hamster ovary (CHO) cell line-derived equivalent of AGS-22M6E ADC and is an exemplary product used for human treatment. Enfortumab vedotin has the same amino acid sequence, linker and cytotoxic drug as AGS-22M6E. The comparability between enfortumab vedotin and AGS-22M6E was confirmed through extensive analytical and biological characterization studies, such as binding affinity to 191P4D12, in vitro cytotoxicity, and in vivo antitumor activity.

[2] = system: patients treated with enfortumab vedotin; assay: Phase 1 study ASG-22CE-13-2 of enfortumab vedotin: dermatologic and corneal adverse events; type: in vivo, human
Source text: In the phase 1 study (Study ASG-22CE-13-2), rash and similar dermatologic AEs were common among patients treated with enfortumab vedotin, and were seen more frequently at the highest dose. Although the exact etiology of dermatologic toxicities associated with enfortumab vedotin is unclear at this time, due to the expression of Nectin-4 in the skin, rash may be an on-target toxicity. The most common dermatological AEs reported in ASG-22CE-13-2 were drug eruption, rash, skin exfoliation, skin pigmentation disorder, and rash maculo-papular. Most occurred during Cycle 1, and some were associated with pruritus. Almost all were mild, with the exception of two events of rash reported as Grade 3 in the 1 mg/kg dose group. […] Mild rash related to enfortumab vedotin should be treated using local supportive care as needed. Topical corticosteroids have been used along with antihistamines for pruritus as needed.
Slit lamp examinations will be conducted on at least the first 60 enrolled patients (from Cohorts 1 and/or 2) on Cycle 2 Day 22 (±1 week) and Cycle 6 Day 22 (±1 week). If corneal AEs are observed in <15% of the first 60 enrolled patients and if the events are generally low grade or asymptomatic, the IDMC may make a recommendation to cease Cycle 2 Day 22 and/or Cycle 6 Day 22 slit lamp exams for the remaining patients if warranted based on review of the cumulative ocular safety data. Based on the results from the Phase 1 study (Study ASG-22CE-13-2), as of the data cut-off date of 14 Nov. 2016, there were 3 patients who reported experiencing corneal adverse events out of 33 patients on […] of enfortumab vedotin. Assuming an event rate of 9% (3/33), with a sample size of 60, the probability of observing >3 events (5%) is 80.0% and the probability of observing <9 events (15%) is 91.2%. If the event rate is higher, the probability of observing <9 events is decreased. For example, if the event rate is 20%, the probability of observing <9 events is decreased to 12.7%. Based on the analysis described above and the review of cumulative ocular safety data, the IDMC recommended that the Cycle 2 Day 22 and Cycle 6 Day 22 slit lamp exams be discontinued in July 2018 and August 2019, respectively.

## enfortumab vedotin: Nectin-4 directed ADC: fully human anti-nectin-4 IgG1 kappa antibody (AGS-22C3) conjugated to MMAE via protease-cleavable maleimidocaproyl valine-citrulline linker
[1]
  comparability between enfortumab vedotin and AGS-22M6E (binding affinity to 191P4D12, in vitro cytotoxicity, in vivo antitumor activity): confirmed
[2]
  dermatological AEs that required discontinuation of study drug: None
[2]; 1 mg/kg dose group
  events of rash reported as Grade 3: two
[2]; 1.25 mg/kg
  corneal adverse event rate (3/33): 9%
  events of Grade 1 papular rash that required a dose reduction: one
[2]; out of 33 patients on 1.25 mg/kg, data cut-off 14 Nov. 2016
  patients who reported experiencing corneal adverse events: 3
